# Test results published in patent US20260216379A1 (GEORGIA STATE UNIVERSITY RESEARCH FOUNDATION, published 2026).
# B1: ProCA32 (other)
# chain: SMTDLLNAEDIKKAVGAFSATDSFDHKKFFQMVGLKKKSADDVKKVFHMLDKDKDGFIEEDELGFILKGFSPDARDLSAKETKMLMAAGDKDGDGKIGVEEWSTLVAES
# notes: Control without a targeting moiety; also called non-targeted ProCA32; ProCA32 itself without targeting moiety
# B2: ProCA32.564.PSMA (designed binder, not shown: small tags and cut ends)
# chain: MSMTDLLNAEDIKKAVGAFSATDSFDHKKFFQMVGLKKKSADDVKKVFHMLDKDKDGFIEEDELGFILKGFSPDARDLSAKETKMLMAAGDKDGDGKIGVEEWSTLVAESLSFFSCWLRRSFSLT
# notes: Fluorescein-labelled in the anisotropy assays, unlabelled in the ELISA
# B3: ProCA32.V1.CXCR4 (designed binder)
# chain: MSMTDLLNAEDIKKAVGAFSATDSFDHKKFFQMVGLKKKSADDVKKVFHMLDKDKDGFIEEDELGFILKGFSPDARDLSAKETKMLMAAGDKDGDGKIGVEEWSTLVAESLGASWHRPDKCCLGYQKRPLP
# notes: also called ProCA32.CXCR4
# B4: rat ProCA32.collagen (designed binder)
# chain: MSMTDLLSAEDIKKAIGAFTAADSFDHKKFFQMVGLKKKSADDVKKVFHILDKDKDGFIEEDELGSILKGFSSDARDLSAKETKTLMAAGDKDGDGKIGVEEWSTLVAESGGGKKWHCYTYFPHHYCVYG
# modifications: Used as a contrast agent loaded with Gd3+; the metal ions are not carried by the letters.
# Assays:
# PSMA [1] = target: T1, PSMA (UniProt Q04609 1-750, limits assumed); test: indirect ELISA on coated LNCaP cell lysate
# T1 construct: whole, on cells; also called PSMA in LNCaP cell lysate; PSMA on LNCaP cells
# Source text: Briefly, LNCaP cell lysates were coated in a 96-well plate and 5% BSA was used as blocking agent. […] The interaction between ProCA32 variants and PSMA in cell lysates was quantified by ELISA using HRP-conjugated goat-anti-rabbit secondary antibody and one step ELISA kit.
# PSMA [2] = target: T1, PSMA; test: assay not given; presumably the ELISA on LNCaP cell lysate of FIG. 10
# CXCR4 = target: T2, CXCR4 (UniProt P61073 1-352, limits assumed); test: binding to CXCR4 positive cells (FIGS. 47A-47B)
# T2 construct: whole, on cells; also called chemokine receptor type 4; CXCR4 on Mel290 cells
# collagen type I = collagen type I (mouse, UniProt P11087 152-1207; Q01149 86-1125); test: cell-based or functional assay
# collagen type I, sequence (P11087 152-1207, chain 1 of 2): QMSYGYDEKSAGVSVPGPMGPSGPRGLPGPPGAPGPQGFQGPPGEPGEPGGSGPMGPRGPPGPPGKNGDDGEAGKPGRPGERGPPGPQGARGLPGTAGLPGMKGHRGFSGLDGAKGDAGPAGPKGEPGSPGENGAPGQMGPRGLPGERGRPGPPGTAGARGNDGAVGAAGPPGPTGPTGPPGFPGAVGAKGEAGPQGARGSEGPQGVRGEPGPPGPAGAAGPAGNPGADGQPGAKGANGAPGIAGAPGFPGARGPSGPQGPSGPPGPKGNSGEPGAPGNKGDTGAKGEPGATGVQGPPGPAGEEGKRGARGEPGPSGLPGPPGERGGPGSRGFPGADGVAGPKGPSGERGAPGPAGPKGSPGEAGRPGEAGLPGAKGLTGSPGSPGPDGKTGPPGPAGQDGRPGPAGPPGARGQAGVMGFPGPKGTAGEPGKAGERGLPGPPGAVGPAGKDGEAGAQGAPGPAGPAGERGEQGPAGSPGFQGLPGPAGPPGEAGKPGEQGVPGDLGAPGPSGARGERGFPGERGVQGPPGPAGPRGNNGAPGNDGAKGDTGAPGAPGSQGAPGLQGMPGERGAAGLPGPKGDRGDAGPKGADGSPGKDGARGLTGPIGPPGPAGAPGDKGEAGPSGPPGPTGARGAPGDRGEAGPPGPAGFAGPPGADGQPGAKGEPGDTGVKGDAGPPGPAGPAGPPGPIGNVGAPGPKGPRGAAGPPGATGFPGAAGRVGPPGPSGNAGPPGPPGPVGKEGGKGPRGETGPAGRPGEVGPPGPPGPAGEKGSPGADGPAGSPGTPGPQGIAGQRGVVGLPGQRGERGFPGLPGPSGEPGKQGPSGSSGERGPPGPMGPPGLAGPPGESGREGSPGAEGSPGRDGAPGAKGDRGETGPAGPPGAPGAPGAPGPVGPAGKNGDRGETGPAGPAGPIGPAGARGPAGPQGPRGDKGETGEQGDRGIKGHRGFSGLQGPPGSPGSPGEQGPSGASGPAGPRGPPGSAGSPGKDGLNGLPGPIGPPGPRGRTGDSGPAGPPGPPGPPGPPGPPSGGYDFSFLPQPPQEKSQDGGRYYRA
# collagen type I, sequence (Q01149 86-1125, chain 2 of 2): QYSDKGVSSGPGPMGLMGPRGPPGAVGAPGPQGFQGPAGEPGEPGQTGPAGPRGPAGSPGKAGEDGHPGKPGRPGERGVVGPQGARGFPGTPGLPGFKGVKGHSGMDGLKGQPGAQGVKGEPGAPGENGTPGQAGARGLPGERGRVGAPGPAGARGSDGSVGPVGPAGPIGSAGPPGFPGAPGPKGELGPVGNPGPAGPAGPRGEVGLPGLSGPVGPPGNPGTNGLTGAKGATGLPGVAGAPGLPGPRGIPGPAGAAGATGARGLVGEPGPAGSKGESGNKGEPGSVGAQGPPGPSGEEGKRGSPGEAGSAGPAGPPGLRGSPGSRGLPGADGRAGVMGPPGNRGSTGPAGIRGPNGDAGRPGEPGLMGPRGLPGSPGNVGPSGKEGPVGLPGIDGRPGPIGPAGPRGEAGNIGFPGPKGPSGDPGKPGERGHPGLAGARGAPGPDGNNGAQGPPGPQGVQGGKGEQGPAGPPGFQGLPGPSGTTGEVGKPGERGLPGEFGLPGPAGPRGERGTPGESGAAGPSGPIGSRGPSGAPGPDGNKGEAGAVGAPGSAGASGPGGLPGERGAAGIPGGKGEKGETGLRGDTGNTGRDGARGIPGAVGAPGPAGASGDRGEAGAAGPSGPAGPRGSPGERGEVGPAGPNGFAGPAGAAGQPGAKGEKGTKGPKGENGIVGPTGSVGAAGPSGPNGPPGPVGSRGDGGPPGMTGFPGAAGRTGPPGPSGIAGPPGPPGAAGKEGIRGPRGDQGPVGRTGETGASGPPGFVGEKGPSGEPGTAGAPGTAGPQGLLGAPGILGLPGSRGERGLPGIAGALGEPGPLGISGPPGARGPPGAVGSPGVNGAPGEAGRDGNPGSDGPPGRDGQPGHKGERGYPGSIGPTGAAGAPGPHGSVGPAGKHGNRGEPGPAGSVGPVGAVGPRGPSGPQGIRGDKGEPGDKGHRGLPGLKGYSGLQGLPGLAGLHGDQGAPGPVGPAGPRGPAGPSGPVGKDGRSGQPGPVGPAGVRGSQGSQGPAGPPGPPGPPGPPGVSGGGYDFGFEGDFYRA
# T1 sequence (Q04609 whole entry): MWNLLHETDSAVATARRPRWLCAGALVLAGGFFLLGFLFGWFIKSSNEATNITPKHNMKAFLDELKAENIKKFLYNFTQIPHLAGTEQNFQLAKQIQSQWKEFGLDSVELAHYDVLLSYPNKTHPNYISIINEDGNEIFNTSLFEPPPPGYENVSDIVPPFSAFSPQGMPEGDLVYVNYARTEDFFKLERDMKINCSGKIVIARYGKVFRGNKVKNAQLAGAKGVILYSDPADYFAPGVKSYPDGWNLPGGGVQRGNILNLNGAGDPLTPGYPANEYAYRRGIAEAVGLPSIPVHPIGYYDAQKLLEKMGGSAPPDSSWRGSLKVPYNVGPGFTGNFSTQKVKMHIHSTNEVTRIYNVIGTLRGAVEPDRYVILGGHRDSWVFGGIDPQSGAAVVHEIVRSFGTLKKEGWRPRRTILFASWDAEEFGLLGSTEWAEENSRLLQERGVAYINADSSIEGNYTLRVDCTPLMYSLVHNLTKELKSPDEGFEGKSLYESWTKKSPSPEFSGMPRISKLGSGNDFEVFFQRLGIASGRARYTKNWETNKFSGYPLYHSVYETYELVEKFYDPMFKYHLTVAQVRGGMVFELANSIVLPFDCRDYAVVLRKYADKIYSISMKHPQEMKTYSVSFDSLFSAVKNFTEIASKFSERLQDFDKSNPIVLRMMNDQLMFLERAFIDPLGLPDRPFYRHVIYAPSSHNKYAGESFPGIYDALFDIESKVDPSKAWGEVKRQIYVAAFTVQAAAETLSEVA
# T2 sequence (P61073 whole entry): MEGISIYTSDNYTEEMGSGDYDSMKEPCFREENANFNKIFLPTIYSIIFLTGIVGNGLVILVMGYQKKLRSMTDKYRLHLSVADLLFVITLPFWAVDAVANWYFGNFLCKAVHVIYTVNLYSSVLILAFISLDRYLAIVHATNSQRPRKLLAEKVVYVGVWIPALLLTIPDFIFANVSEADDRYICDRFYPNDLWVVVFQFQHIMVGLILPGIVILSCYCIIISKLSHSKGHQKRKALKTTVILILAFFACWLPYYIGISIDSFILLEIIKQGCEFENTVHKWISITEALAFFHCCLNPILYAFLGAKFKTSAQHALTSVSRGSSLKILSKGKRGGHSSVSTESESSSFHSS
binder,measurement,setting,value
B1,binding result,PSMA [1],no binding
B2,EC50,PSMA [2],520 nM
B3,Kd,CXCR4,1840 nM
B4,"Gd^3+ injection dosage per gram of tissue in fibrotic liver, against rProCA32",collagen type I,~2 fold
